Laboratory results as given in patent EP4755393A1, “USE OF PROTON PUMP REGULATOR IN PREPARATION OF DRUG” (Shanghai Quietd Biotechnology Co., Ltd., priority 2023, dated 2025).
Ends that are not written are not given here.

Assays:
[1] = tested on: Male SD rats; assay: Neurological function scoring after MCAO (Middle Cerebral Artery Occlusion); assay type: in vivo; settings: 5 mpk, from 3 days prior to surgery once daily plus doses on day of surgery; 24 h after MCAO; vs Model + QD202 placebo; FIG. 16
Source text: (§1) Experimental protocol: Male SD rats (260-280 g) were randomly assigned to the following groups: Sham + QD202 placebo group (n=6), Model + QD202 placebo group (n=6), positive control group (Edaravone-5 mpk, n=6), QD202-1 mpk group (n=6), QD202-3 mpk group (n=6), QD202-5 mpk group (n=6). The sham group served as the sham-operated group, while rats in the model group were subjected to Middle Cerebral Artery Occlusion (MCAO) for model establishment. For the edaravone-treated group, administration was initiated 3 days prior to surgery, once daily; on the day of surgery, a total of […] were given (30 min before surgery, 30 min after surgery, and 60 min after surgery). Rats in the QD202 groups received a single dose at 30 min after surgery. At 24 h postoperatively, neurological function was scored according to Table 3. Subsequently, the whole brain tissues of the rats were harvested for TTC staining to evaluate the infarct volume. […]

[2] = tested on: Male SD rats; assay: TTC staining of infarct volume after MCAO; assay type: in vivo; settings: 5 mpk, from 3 days prior to surgery once daily plus doses on day of surgery, 24 h after MCAO, vs Model + QD202 placebo, FIG. 17
Source text: as §1

[3] = tested on: HT22 cells; assay: Quantitative detection of ROS (DCFH-DA) in the oxygen-glucose deprivation (OGD) cell model; assay type: cell-based; settings: Mus musculus, HT-22, OGD 16 h, 24 h reoxygenation, OGD plus vehicle = 100%, mean ± standard deviation, read-out: inhibition rate of ROS
Procedure: Cell culture: Mouse hippocampal HT22 cells were cultured in DMEM and 10% serum at 37°C in a 5% CO2 incubator.
Oxygen-glucose deprivation (OGD) cell model: HT22 cells were seeded at a density of about 1 ×10^5 into 96-well plates and cultured for 24 h in a 37°C incubator with 5% CO2/95% air in DMEM and 10% serum. After placing HT22 cells in glucose-free medium, they were transferred to a sealed container containing a 5% CO2/95% N2 mixture and incubated at 37°C for 16 h. The glucose-free medium was then replaced with a normal medium containing glucose, and the mixture was incubated for 24 h in a 37°C incubator containing 5% CO2/95% air for reoxygenation.
Experimental grouping: Normally cultured HT22 cells were used as the control group. […] After 24 h of reoxygenation, quantitative detection of ROS was performed.
Quantitative detection of ROS: Reactive oxygen species were detected using the Beyotime reactive oxygen species detection kit and the fluorescent probe DCFH-DA. […] Observation was performed under a fluorescence microscope, followed by quantification of the average fluorescence intensity using Image J software.
Data analysis: Three parallel experiments were performed. The average fluorescence intensity of the OGD plus vehicle group was set as the standard value of 100% for normalization of the fluorescence intensity of cells in each group. […]

[4] = target: hATP6V1B2 (Homo sapiens, UniProt P21281); assay: Co-immunoprecipitation of Myc-tagged hATP6V1B2 with GFP-tagged QD202 and site mutants (HEK 293 lysates, western blot); assay type: binding; settings: expressed from pEGFP-N3 plasmids in HEK 293, anti-GFP IP, FIG. 7A, 7B
Procedure: Expression plasmids of hATP6V1B2, QD202, site-mutated QD202(D15A), site-mutated QD202(V16A), site-mutated QD202(P13A), and site-mutated QD202(V14A) were constructed respectively. The hATP6V1B2 was co-transfected into HEK 293 cells with the expression plasmids of QD202, site-mutated QD202(D15A), site-mutated QD202(V16A), site-mutated QD202(P13A) and site-mutated QD202(V14A), respectively, and cellular proteins were extracted 48 h after transfection. Table 1: Plasmid sequences
Protein extraction was performed using Pierce RIPA lysis buffer. Taking cells in a 60 mm culture dish as an example, 500 µL of Pierce RIPA lysis buffer containing protease inhibitors was added. Cells were collected and transferred to a clean 1.5 mL EP tube using a cell scraper. After mixing for 1 h on a rotary mixer at 4°C, the cells were centrifuged at 13,000 rpm at 4°C for 10 min to remove cell debris. The hATP6V1B2 was equally divided into […], which were then mixed separately with the cell lysates transfected with QD202, site-mutated QD202(P13A), site-mutated QD202(V14A), site-mutated QD202(D15A), and site-mutated QD202(V16A), 30 µL of the supernatant was taken and mixed with 10 µL of 4× loading buffer, followed by boiling at 100°C for 5 min and storage at -20°C; 2 µL of the antibody (Anti-GFP, Roche, 11814460001) was added to the remaining 470 µL of the protein lysate, and the mixture was incubated overnight (about 16-18 h) on a rotary shaker at 4°C. 30 µL of Protein G Sepharose beads (Roche, 11243233001) were placed in an EP tube and washed three times with Pierce RIPA lysis buffer to eliminate interference from the original stock solution. The protein that had been incubated with the antibody overnight was added to the Sepharose beads, followed by mixing and incubation at 4°C for 2 h to ensure sufficient binding between the antibody and the protein. The mixture was centrifuged at 4000 rpm for 1 min. The supernatant was aspirated off, followed by the addition of 600 µL of Pierce RIPA lysis buffer. The tube was gently inverted, followed by centrifugation to collect the supernatant. The above steps were repeated three times to wash away non-specifically bound proteins. Finally, 30 µL of 1×loading buffer was added, the mixture was mixed well, heated at 60°C for 20 min to denature the protein, and then stored at -20°C. The protein was examined by western blot (Myc-Tag (9B11) Mouse mAb, CST, 2276S; Anti-GFP, Roche, 11814460001).
The hATP6V1B2 was co-transfected into the host cell line HEK 293 with the expression plasmids of QD202, site-mutated QD202(P13A), site-mutated QD202(V14A), site-mutated QD202(D15A) and site-mutated QD202(V16A), respectively. […] It is therefore hypothesized that valine at position 16 of QD202 is one of the key amino acids for the binding between hATP6V1B2 and QD202, whereas proline at position 13, valine at position 14 and aspartic acid at position 15 can be replaced with alanine, as illustrated in FIG. 7A and FIG. 7B.

hATP6V1B2, sequence (P21281 whole entry): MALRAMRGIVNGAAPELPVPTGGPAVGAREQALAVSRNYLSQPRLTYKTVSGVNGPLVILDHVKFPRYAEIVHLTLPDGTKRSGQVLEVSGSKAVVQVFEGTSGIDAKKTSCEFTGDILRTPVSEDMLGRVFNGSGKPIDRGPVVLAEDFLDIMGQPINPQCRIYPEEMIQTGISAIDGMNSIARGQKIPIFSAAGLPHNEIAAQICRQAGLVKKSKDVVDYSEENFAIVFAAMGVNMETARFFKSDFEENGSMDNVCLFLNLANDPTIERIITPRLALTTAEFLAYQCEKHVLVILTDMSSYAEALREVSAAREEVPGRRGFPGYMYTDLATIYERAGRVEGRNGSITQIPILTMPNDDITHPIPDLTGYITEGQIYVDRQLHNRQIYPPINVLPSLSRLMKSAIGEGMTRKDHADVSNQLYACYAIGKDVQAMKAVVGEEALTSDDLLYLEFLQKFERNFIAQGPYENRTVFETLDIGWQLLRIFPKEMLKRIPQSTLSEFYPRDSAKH

| Molecule | neurobehavioral score [1] | infarct volume [2] | inhibition at 200 µM [3] [%] | binding to Myc-tagged hATP6V1B2 (co-immunoprecipitation) [4] |
| --- | --- | --- | --- | --- |
| CC1=NN(c2ccccc2)C(=O)C1 [Edaravone] | significantly lower than that of the Model + QD202 placebo group with a statistically significant difference (p<0.01) | significantly lower than that of the Model + QD202 placebo group, with a statistically significant difference (p<0.01) | 63.8 ± 10.9 | – |
| QD202(D15A): QD202 in which aspartic acid at position 15 was substituted with alanine; expressed from pEGFP-N3 plasmid (YGRKKRRQRRRSPVAVVCS; left off: large carriers) | – | – | – | also bind to |
| QD202(P13A): QD202 in which proline at position 13 was substituted with alanine; expressed from pEGFP-N3 plasmid (YGRKKRRQRRRSAVDVVCS; not fully specified) | – | – | – | also bind to |
| QD202(V14A): QD202 in which valine at position 14 was substituted with alanine; expressed from pEGFP-N3 plasmid (YGRKKRRQRRRSPADVVCS; not fully specified) | – | – | – | also bind to |
| QD202(V16A): QD202 in which valine at position 16 was substituted with alanine; expressed from pEGFP-N3 plasmid (YGRKKRRQRRRSPVDAVCS; not fully specified) | – | – | – | significantly reduced |
